No end group written: not given here. fluorescein = fluorescein label at the N-terminal end
Tests used:
[1] = biological target: T1, fusion protein glutathione-S-transferase-Bcl-W (UniProt P08515 1-218 = GST; Q92843 1-171); assay: fluorescence polarisation, 15 nM fluorescein-peptide, GST-Bcl-W titrated 1 nM to 5 uM
T1 construct: also called GST-Bcl-W
Description: (§1) A 15 nM solution of the peptide obtained in Example 1 labelled with fluorescein at the N-terminal end is mixed with a solution containing the fusion protein GST-Bcl-XL or GST-Bcl-W at a concentration varying from 1 nM to 5 μM in a buffer containing Na₂HPO₄ 20 mM pH 7.4, EDTA 1 mM, NaCl 50 mM, pluronic acid F-68 0.05%. The fluorescence polarisation is then measured by the En Vision apparatus (Packard Perkin-Elmer).

[2] = biological target: T2, fusion protein glutathione-S-transferase-Bcl-XL (UniProt P08515 1-218 = GST; Q07817 1-209); assay: fluorescence polarisation, 15 nM fluorescein-peptide, GST-Bcl-XL titrated 1 nM to 5 uM
T2 construct: also called GST-Bcl-XL
T2 sequence (P08515 1-218, tags or fused parts left off): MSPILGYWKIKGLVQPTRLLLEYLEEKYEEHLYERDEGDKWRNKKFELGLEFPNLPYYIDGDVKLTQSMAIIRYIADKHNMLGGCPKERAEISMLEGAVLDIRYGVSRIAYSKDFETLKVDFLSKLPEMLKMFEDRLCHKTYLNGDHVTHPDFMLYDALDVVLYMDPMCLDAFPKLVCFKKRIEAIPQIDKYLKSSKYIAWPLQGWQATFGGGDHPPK
Description: as §1

T1 sequence (P08515 1-218, tags or fused parts left off): as above

B1: peptide obtained in Example 1 labelled with fluorescein at the N-terminal end (peptide)
peptide: fluorescein-DTRRSMVFARHLREVGDEFRSR
notes: Used at 15 nM in fluorescence polarisation; also called ID; NO.1
[1]
  Kd: 411 nM
[2]
  Kd: 215 nM

Reference: patent US20060183688A1 (LES LABORATORIES SERVIER, published 2006)
